# From the MegaScale stability set (Tsuboyama et al. 2023)
# B1: 6NMW (parent)
# chain: QGDIVVALYPYDGIHPDDLSFKKGEKMKVLEEHGEWWKAKSLLTKKEGFIPSNYVAKLN
# Variants of: B1
# Assay: folding stability dG (cDNA display proteolysis); higher = more stable
# Settings: PBS, room temperature
row,Variant,folding stability dG [kcal/mol]
1,K28A,3.21
2,K28D,1.21
3,P10G,3.56
4,P10Q,3.77
5,P10F,2.47
6,P10K,3.78
7,P10M,2.75
8,P10S,4.61
9,P10H,3.93
10,P10L,2.23
11,P10W,2.74
12,P10C,3.89
13,L30K,0.883
14,L30C,2.42
15,L30R,0.866
16,L30E,1.21
17,L30S,1.5
18,L30F,2.37
19,L30N,0.519
20,G24E,1.16
21,G24F,2.13
22,G24L,1.02
23,G24R,0.941
24,G24D,2.1

row,Variant,folding stability dG [kcal/mol]
1,G24C,3.62
2,I4R,0.874
3,I4H,1.74
4,I4S,0.94
5,I4C,2.58
6,L8I,3.04
7,L8W,1.21
8,L8R,1.94
9,L8S,0.987
10,L8Q,1.62
11,L42S,0.699
12,L42W,1.06
13,L42N,0.819
14,L42I,2.51
15,L42G,-0.156
16,K46E,2.94
17,K46R,3.66
18,K46S,2.48
19,K46M,3.47
20,K46C,3.37
21,Y54K,2.44
22,Y54I,2.17
23,Y54S,1.81
24,Y54L,3.67

row,Variant,folding stability dG [kcal/mol]
1,Y54H,2.9
2,Y54T,1.16
3,A39V,4.31
4,A39T,1.32
5,A39Y,-0.228
6,A39W,-0.54
7,A39F,-0.401
8,A39I,1.95
9,D3S,4.3
10,D3L,4.43
11,D3A,4.25
12,D3V,4.37
13,D3N,3.87
14,D3H,4.61
15,L43E,3.22
16,L43C,3.7
17,L43D,3.14
18,L43S,3.38
19,L43K,3.17
20,L43A,3.2
21,E35G,3.14
22,E35P,3.64
23,E35Q,3.92
24,E35I,3.97

row,Variant,folding stability dG [kcal/mol]
1,E35L,4.23
2,E35T,3.73
3,E35Y,4.96
4,G34F,1.15
5,G34T,1.48
6,G34D,1.96
7,H15E,2.54
8,H15G,3.99
9,H15A,3.22
10,H15Y,3.75
11,H15Q,3.03
12,H15V,1.77
13,H15C,4.24
14,H15F,3.5
15,K26I,4.68
16,K26N,2.15
17,K26Y,4.84
18,K26W,4.72
19,K26Q,3.56
20,K26S,2.3
21,P16Y,2.59
22,P16I,3
23,P16W,2.79
24,P16S,2.98

row,Variant,folding stability dG [kcal/mol]
1,P16L,2.7
2,P16C,3.56
3,P16A,3.29
4,P16N,2.68
5,M27W,-0.174
6,V55K,0.066
7,V55S,-0.255
8,V55C,2.7
9,V55L,1.18
10,V55M,1.6
11,P51L,1.54
12,P51A,0.249
13,P51I,0.759
14,P51Y,1.26
15,D12T,4.32
16,D12N,3.98
17,D12A,3.85
18,D12G,2.7
19,D12R,4.19
20,D12W,3.78
21,D12Q,4.13
22,D12P,3.14
23,D12L,3.69
24,V29C,1.16

row,Variant,folding stability dG [kcal/mol]
1,V29L,4.64
2,V29A,0.496
3,V29F,1.05
4,I14P,2.57
5,I14V,3.97
6,I14L,3.51
7,I14C,4.14
8,I14F,2.99
9,I14W,2.68
10,I14D,2.68
11,I14N,3.02
12,I14Q,3.67
13,H33G,3.24
14,H33T,3.12
15,H33M,3.29
16,H33K,3.38
17,H33L,3.41
18,H33R,3.41
19,H33Y,3.6
20,H33W,3.34
21,D17I,2.2
22,D17W,4.86
23,D17K,3.5
24,D17S,3.63

row,Variant,folding stability dG [kcal/mol]
1,D17V,2.23
2,G48N,-0.967
3,G48H,-0.819
4,K38M,3.87
5,K38C,3.63
6,K38T,2.18
7,K38Q,2.39
8,K38I,3.44
9,K38S,1.83
10,S52D,1.16
11,S52H,2.96
12,S52Y,3.08
13,S52G,2.51
14,S52V,3.02
15,G13C,1.96
16,G13D,0.145
17,G13F,0.38
18,G13I,0.929
19,K40N,1.04
20,K40G,1.1
21,K40T,2.76
22,K40Q,3.88
23,K40V,4.24
24,K40Y,3.79

row,Variant,folding stability dG [kcal/mol]
1,K40I,3.96
2,E47F,2.36
3,E47C,3.83
4,E47Q,3.21
5,E47D,1.89
6,E47S,3.47
7,D18L,2.84
8,D18T,3.97
9,D18H,4.91
10,D18K,3.08
11,D18A,3.61
12,D18R,3.15
13,D18G,3.33
14,Y11N,0.567
15,Y11K,0.796
16,Y11W,4.27
17,Y11H,1.71
18,G2E,3.29
19,G2F,3.9
20,G2V,3.15
21,G2M,3.38
22,G2W,3.93
23,G2A,3.27
24,S41Y,0.369

row,Variant,folding stability dG [kcal/mol]
1,S41C,1.48
2,S41K,1.64
3,S41N,1.9
4,S41Q,0.463
5,S41I,1.28
6,N53E,3.19
7,N53Q,3.5
8,N53H,3.87
9,A7Y,-0.494
10,A7V,0.268
11,A7L,-0.675
12,A7G,2.64
13,I50P,-0.401
14,I50M,0.656
15,E31M,3.05
16,E31V,2.64
17,E31C,4.09
18,E31Q,3.11
19,E31T,2.69
20,L58Q,2.38
21,L58K,1.65
22,L58F,3.26
23,L58V,3.89
24,L58D,2.77

row,Variant,folding stability dG [kcal/mol]
1,L58W,3.73
2,L58I,3.89
3,A56E,3.61
4,A56I,4.4
5,A56D,2.03
6,A56G,2.51
7,A56Q,3.85
8,A56H,3.07
9,A56C,4.6
10,A56L,3.61
11,N59W,3.08
12,N59Y,3.57
13,N59V,3.95
14,N59H,3.98
15,N59L,3.64
16,N59Q,3.56
17,N59C,4.64
18,T44W,0.672
19,T44Y,0.599
20,T44F,0.599
21,T44E,0.228
22,T44N,2.06
23,T44K,0.416
24,T44C,0.909

row,Variant,folding stability dG [kcal/mol]
1,W37Q,1.99
2,W37S,2.26
3,W37D,0.168
4,W37H,2.59
5,W37A,2.24
6,W37P,1.7
7,W37M,4.7
8,W37N,1.19
9,W37R,2.28
10,W37C,3.04
11,W37V,3.04
12,W36M,3.29
13,W36A,1.68
14,W36R,4.45
15,W36T,2.87
16,W36Y,3.49
17,W36I,3.52
18,W36G,0.695
19,W36H,2.3
20,W36D,0.269
21,E25R,0.331
22,E25D,2.36
23,E25Y,0.16
24,E25S,0.621

row,Variant,folding stability dG [kcal/mol]
1,E25F,-0.064
2,E25G,-0.389
3,V6F,2.89
4,V6S,1.15
5,V6N,0.282
6,V6M,2.59
7,L19R,-0.083
8,L19M,2.12
9,L19Y,0.613
10,K22G,2.74
11,K22S,3.08
12,K22F,2.5
13,K22I,3.84
14,K22V,3.82
15,K22H,2.66
16,K22R,3.65
17,K22D,2.71
18,K22Q,3.49
19,K45V,1.61
20,K45W,4.01
21,K45S,3.89
22,K45D,4.09
23,K45A,3.94
24,K45R,3.65

row,Variant,folding stability dG [kcal/mol]
1,K57F,3.96
2,K57A,3.02
3,K57M,2.85
4,K57T,2.85
5,K57E,2.02
6,K57C,3
7,K57N,2.44
8,K23P,2.02
9,K23G,1.64
10,K23C,3.59
11,K23L,2.79
12,K23Q,3.22
13,K23I,2.95
14,K23V,3.39
15,E32R,4.29
16,E32D,4.38
17,E32N,3.83
18,E32Y,4.42
19,E32A,4.31
20,E32G,3.33
21,E32C,4.44
22,Y9V,2.5
23,Y9G,1.46
24,Y9C,4.44

row,Variant,folding stability dG [kcal/mol]
1,Y9D,1.08
2,Q1P,3.96
3,Q1C,4.65
4,Q1L,4.29
5,Q1N,3.69
6,F21Q,-0.217
7,F21I,0.968
8,F21Y,-0.495
9,F21V,1.74
10,F49S,1.94
11,F49D,1.19
12,F49L,3.4
13,F49A,1.48
14,F49K,2.81
15,F49P,-0.719
16,S20G,2.01
17,S20P,2.81
18,S20W,1.65
19,S20T,3.13
20,S20E,1.75
21,V5M,1.65
22,V5S,0.271
